Data on 2 molecules can be found in patent US20260049143A1 (KYMAB, published 2026).

Assay [1] addresses T1, human ICOS-mFc (Chimerigen) (human, UniProt Q9Y6W8 21-140, limits assumed).
T1 construct: Bought fusion; also called hICOS; recombinant human ICOS protein; not shown: mouse Fc
T1 sequence: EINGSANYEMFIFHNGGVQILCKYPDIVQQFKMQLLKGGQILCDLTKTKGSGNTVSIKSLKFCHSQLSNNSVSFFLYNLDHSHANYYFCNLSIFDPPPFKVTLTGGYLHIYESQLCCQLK
Nature of the assay: DELFIA ELISA, coated human ICOS-mFc, N=3. The method, then: (§1) Recombinant ICOS proteins, human ICOS-mFc or mouse ICOS-mFc (Chimerigen) were diluted in 1×PBS and added to Black Hi-bind plates (Griener) at 1 μg/ml, 50 μl/well. Recombinant PD-L1 proteins, human PD-L1-Flag-His or mouse-His were diluted in 1×PBS and added to Black Hi-bind plates (Griener) at 4 μg/ml, 50 μl/well. The plates were left overnight at 4° C. The next day plates were washed 3× with 300 μl/well of 1×PBS+0.1% Tween and blocked with 200 μl/well of 1×PBS+1% BSA blocking buffer for 1 hr at RT on a plate shaker. Plates were washed 3× with 300 μl/well of 1×PBS+0.1% Tween.
(§2) However, human-PD-L1 mAb² antibodies were diluted in 1×PBS+0.1% BSA buffer and diluted 1 in 2 from a starting working concentration of 0.066 μM over an 11 point titration. Titrated antibodies were added to the plates, 50 μl/well and left to incubate for 1 hr at R.T on a plate shaker. Plates were washed 3× with 300 μl/well of 1×PBS+0.1% Tween.
(§3) DELFIA® Eu-labelled Anti-human IgG(Perkin-Elmer) was diluted 1:500 in DELFIA Assay buffer (Perkin-Elmer) and added to the assay plate (50 μl/well), left to incubate for 1 hr at RT on a plate shaker. […] After incubation, assay was read on Envision plate reader (Perkin Elmer), Time-resolved fluorescence (TRF) was measured at 615 nm.
(In general: In an ELISA, binding on a coated surface is turned into a signal by an enzyme label.)

Assay [2] addresses T2, mouse ICOS-mFc (Chimerigen) (mouse, UniProt Q9WVS0 21-141, limits assumed).
T2 construct: Bought fusion; also called mICOS; recombinant mouse ICOS protein; not shown: mouse Fc
T2 sequence: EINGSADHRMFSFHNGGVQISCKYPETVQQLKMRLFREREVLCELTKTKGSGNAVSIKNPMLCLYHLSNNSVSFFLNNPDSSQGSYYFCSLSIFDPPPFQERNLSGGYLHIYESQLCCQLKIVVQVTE
Nature of the assay: DELFIA ELISA, coated mouse ICOS-mFc, N=1. The method, then: as §1, §2, §3

The target in assay [3] is T1, human ICOS-mFc (Chimerigen). Nature of the assay: DELFIA ELISA, coated human ICOS-mFc, mean. The method, then: as §1, §2, §3
In assay [4] the target is T3, mouse ICOS expressed on CHO cells (mouse, UniProt Q9WVS0 21-141).
T3 construct: the cell-expressed form may differ; also called mICOS; CHO mouse ICOS
T3 sequence: T2 sequence
In words: flow cytometry, CHO mouse ICOS cells, anti-human IgG AF647, N=2. As to the method: (§4) CHO-S cells transfected with either human ICOS or mouse ICOS were resuspended in FACS buffer (PBS+1% w/v BSA+0.1% w/v sodium azide) and transferred to a 96-well V-bottom plate (Greiner) at a density of 1×10⁵ cells per well. mAb and mAb² were titrated in FACS buffer, 1 in 3 dilution across 11 points from a starting working concentration of 400 nM. Plates were centrifuged at 300×g for 3 minutes, supernatant discarded and 50 μL mAb or mAb² solution were added to cells and incubated at 4° C. for 1 hour. Cells were washed with 150 μL of PBS and centrifuged at 300×g for 3 minutes, supernatant was discarded and cell pellet resuspended in 150 μL PBS added. This wash step was repeated twice. […] Cells were incubated for 1 hour at 4° C. in the dark. Cells were washed with 150 μL of PBS and centrifuged at 300 g for 3 minutes, supernatant was discarded and cell pellet resuspended in 150 μL PBS added. This wash step was repeated twice. Cells were fixed with 25 μL 4% v/v paraformaldehyde, incubated for 20 minutes at 4° C., cells were pelleted by centrifugation at 300×g and the supernatant discarded. Cells were washed with 150 μL of PBS and centrifuged at 300 g for 3 minutes, supernatant was discarded and cell pellet resuspended in 150 μL PBS added. This wash step was repeated. Pelleted cells were resuspended in 110 μL 1×PBS.
(A flow cytometer gives signals particle by particle.)

The target in assay [5] is T3, mouse ICOS expressed on CHO cells. Nature of the assay: flow cytometry, CHO mouse ICOS cells, anti-human IgG AF647, N=3. The method, then: as §4
The target in assay [6] is T1, human ICOS-mFc (Chimerigen). In words: HTRF neutralisation of human B7-H2 binding to human ICOS-mFc, n2. As to the method:
(§5) 5 μl of human ICOS-mFc (Chimerigen) at 20 nM (5 nM final) or 5 μl of mouse ICOS-mFc (Chimerigen) at 4 nM (1 nM final) were added to relevant assay wells. Plate was incubated for 1 hour (hr) at room temperature (RT).
(§6) After incubation, assay was read on Envision plate reader (Perkin Elmer) using a standard HTRF protocol. 620 nm and 665 nm channel values were exported to Microsoft Excel and % Delta-F and % Neutralisation calculations performed. Titration curves and IC50 values [M] were plotted using Graphpad (Prism). IC50 values were calculated by first transforming the data using equation X=Log(X). The transformed data was then fitted using nonlinear regression, using fitting algorithm, log (inhibitor) vs. response-variable slope (four parameters).

For assay [7] the target is unchanged. Nature of the assay: HTRF neutralisation of human B7-H2 binding to human ICOS-mFc, n3. The method, then:
as §5, §6

The target is the same in assay [8]. In words: HTRF neutralisation of human B7-H2 binding to human ICOS-mFc, average. As to the method:
as §5, §6

The target of assay [9] is T4, Biotinylated human ICOS protein (human, UniProt Q9Y6W8 21-140, limits assumed, biotinylated).
T4 sequence: T1 sequence
Nature of the assay: avidity SPR (ProteOn), biotinylated hICOS on NLC chip, antibody analyte. The method, then: Biotinylated human ICOS protein diluted at 7.5 μg/mL in running buffer (1×HBS-EP+Buffer Technova, cat. No. H8022) was captured on a NLC sensor chip (Bio-Rad, cat No 1765021). The surface was then blocked using biocytin (Sigma Aldrich, cat No B1758) at 1 mg/mL.
The assay was carried out at 25° C.
The buffer injection (i.e. 0 nM) was used to double reference the sensorgrams. The analysis was carried out using the equilibrium model inherent to the ProteOn's analysis software for each mAb² construct.

B1: STIM001_457 (bispecific antibody, V domains shown, not shown: a dimerising Fc or GST)
VH: QVQVVQSGAEVKKPGASVKVSCKASGYTFSTFGITWVRQAPGQGLEWMGWISAYNGDTNYAQNLQGRVIMTTDTSTSTAYMELRSLRSDDTAVYYCARSSGHYYYYGMDVWGQGTTVTVSS
VL: DIVMTQSPLSLPVTPGEPASISCRSSQSLLHSNEYNYLDWYLQKPGQSPQLLIFLGSNRASGVPDRFSGSGSGTDFTLKITRVEAEDVGIYYCMQSLQTPLTFGGGTKVEIK
notes: mAb^2 IgG1; also called STIM001_457 mAb^2
Regarding B1, the EC50 (as a rule, the concentration giving half of the maximal effect) in assay [1] stood at 9.17 nM; in assay [2], 23.6 nM; in [3], 12.6 nM; in [4], 3.53 nM; in assay [5], 6.97 nM. The results for the IC50 in assay [6], in assay [7] and in assay [8] were 1.32 nM, 2.38 nM and 1.6 nM, respectively. Moreover, the off-rate (koff) (usually the first-order rate constant of dissociation) in assay [9] was 0.000346 s⁻¹.

B2: STIM003_457 (bispecific antibody, V domains shown, not shown: a dimerising Fc or GST)
VH: EVQLVESGGGVVRPGGSLRLSCVASGVTFDDYGMSWVRQAPGKGLEWVSGINWNGGDTDYSDSVKGRFTISRDNAKNSLYLQMNSLRAEDTALYYCARDFYGSGSYYHVPFDYWGQGILVTVSS
VL: EIVLTQSPGTLSLSPGERATLSCRASQSVSRSYLAWYQQKRGQAPRLLIYGASSRATGIPDRFSGDGSGTDFTLSISRLEPEDFAVYYCHQYDMSPFTFGPGTKVDIK
notes: mAb^2 IgG1; also called ST1M003_457; STIM003_457 mAb^2
In the case of B2, the EC50 is 0.401 nM in assay [1]; 0.327 nM in [2]; 0.43 nM in assay [3]; 11 nM in [4]; 11.9 nM in assay [5]. Further, the IC50 (in general, the concentration that inhibits the measured activity by half) was 0.47 nM in assay [6], 0.77 nM in [7] and 0.56 nM in [8]. In [9], this molecule showed a koff of 0.000244 s⁻¹.
